Source: publication PMC2717645

Biological target: taxol-stabilized microtubules (bovine brain tubulin) (bovine) (UniProt Q6B856)
Assay: co-sedimentation

B1: recombinant LC1 (natural protein)
chain: MAKATTIKDAIRIFEERKSVVATEAEKVELHGMIPPIEKMDATLSTLKACKHLALSTNNIEKISSLSGMENLRILSLGRNLIKKIENLDAVADTLEELWISYNQIASLSGIEKLVNLRVLYMSNNKITNWGEIDKLAALDKLEDLLLAGNPLYNDYKENNATSEYRIEVVKRLPNLKKLDGMPVDVDEREQANVARGG
- stoichiometry N (LC1 per tubulin monomer): 1.06
